Numbered stars: 1 amine (or outer) side, 2 acyl side, 3 side chain; on linkers, the order of the positions; unused ones are H or OH. Bridge positions count the residues as written; N and C are the ends. Square brackets hold non-standard residues; d marks the D form. Primed or numbered codes have the meaning given here. Qglucamine = (2S)-2-amino-4-{[(2S,3R,4R,5R)-2,3,4,5,6-pentahydroxyhexyl]carbamoyl}butanoic acid, O=C(CC[C@H](N[*:1])C(=O)[*:2])NC[C@H](O)[C@@H](O)[C@H](O)[C@H](O)CO; KCOpipzaa″ = (2S)-2-amino-6-{[4-(carboxymethyl)piperazine-1-carbonyl]amino}hexanoic acid, O=C(NCCCC[C@H](N[*:1])C(=O)[*:2])N1CCN(CC(=O)[*:3])CC1; Hgn″ = (2S)-2-amino-5-carbamoylpentanoic acid (homoglutamine), NC(=O)CCC[C@H](N[*:1])C(=O)[*:2]; Hgn = (2S)-2-amino-5-carbamoylpentanoic acid, NC(=O)CCC[C@H](N[*:1])C(=O)[*:2]; Trp(1-Me,7-Cl) = Cn1cc(C[C@H](N)C(=O)O)c2cccc(Cl)c21; dPhe(3-CONH2) = NC(=O)c1cccc(C[C@@H](N)C(=O)O)c1; Trp(1-Me) = Cn1cc(C[C@H](N)C(=O)O)c2ccccc21; NMe3Pal = CN[C@@H](Cc1cccnc1)C(=O)O; Gly(cBu) = N[C@H](C(=O)O)C1CCC1 Where only a bound is given, the exact number is not on record here.

We go through two molecules from patent US20260098061A1, “EPHA2-BINDING PENDING PEPTIDE AND COMPOSITION COMPRISING SAME” (PeptiDream Inc., priority 2022, published 2026).

The target in this experiment is T1, Recombinant Human EphA2 Fc Protein (Fc tag, Elabscience) (human, UniProt P29317 24-534).
T1 construct: Bought protein (Elabscience), captured with the Human Antibody Capture kit; also called hEphA2; not shown: Fc tag of the commercial protein
The experiment can be described thus: SPR Biacore T200, EphA2-Fc captured, single-cycle kinetics; grade, legend 0 < A ≤ 1 nM. The procedure:
The HBS-P+ buffer (10 mM HEPES (pH7.4), 150 mM NaCl, 0.05% (v/V) Surfactant P20) containing 1% DMSO was used as running buffer. Recombinant Human EphA2 Fc Protein (Fc tag, Elabscience) was captured by Human Antibody Capture kit (Cytiva). Peptide samples in DMSO were diluted with running buffer, and prepared five serial dilutions. Using these serial dilutions, kinetics of peptides against EphA2 was measured at a flow rate of 30 mL/min at 25° C. The method adopted for sample measurement was a single-cycle kinetics method. The analysis was conducted using the evaluation software 3.0 provided with Biacore T200. Kinetics fitting was done on the difference data obtained by subtracting the baseline data from sample measurement data. KD values were calculated based on the association rate constant (ka) and dissociation rate constant (kd).
(In general: SPR reads the build-up and loss of mass on a sensor chip optically.)

T1 sequence (P29317 24-534 limits assumed): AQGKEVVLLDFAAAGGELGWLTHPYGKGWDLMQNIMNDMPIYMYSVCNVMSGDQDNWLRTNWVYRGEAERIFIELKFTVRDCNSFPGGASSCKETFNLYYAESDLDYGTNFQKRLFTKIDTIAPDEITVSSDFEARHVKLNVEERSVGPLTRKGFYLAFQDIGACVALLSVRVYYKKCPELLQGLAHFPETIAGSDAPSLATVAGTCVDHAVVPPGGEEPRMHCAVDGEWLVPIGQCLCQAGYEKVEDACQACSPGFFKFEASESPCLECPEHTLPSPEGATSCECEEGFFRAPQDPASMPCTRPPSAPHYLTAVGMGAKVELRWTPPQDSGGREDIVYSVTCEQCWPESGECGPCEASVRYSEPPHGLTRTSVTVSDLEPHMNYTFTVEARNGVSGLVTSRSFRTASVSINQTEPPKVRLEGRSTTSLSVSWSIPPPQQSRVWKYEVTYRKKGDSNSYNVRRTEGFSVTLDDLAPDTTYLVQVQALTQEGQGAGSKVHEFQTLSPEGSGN

B1: PDC_EphA2-00019438 (peptide)
peptide: {CH2CO}-[dPhe(3-CONH2)][NMe3Pal]N[Gly(cBu)][Hgn″][NMe3Pal][Trp(1-Me,7-Cl)][KCOpipzaa″][Trp(1-Me)]T[Hgn″]C-NH2
modifications: thioether N-12
SMILES: C[C@@H](O)[C@@H]1NC(=O)[C@H](Cc2cn(C)c3ccccc23)NC(=O)[C@H](CCCCNC(=O)N2CCN(CC(=O)O)CC2)NC(=O)[C@H](Cc2cn(C)c3c(Cl)cccc23)NC(=O)[C@H](Cc2cccnc2)N(C)C(=O)[C@H](CCCC(N)=O)NC(=O)[C@H](C2CCC2)NC(=O)[C@H](CC(N)=O)NC(=O)[C@H](Cc2cccnc2)N(C)C(=O)[C@@H](Cc2cccc(C(N)=O)c2)NC(=O)CSC[C@@H](C(N)=O)NC(=O)[C@H](CCCC(N)=O)NC1=O
On to B1, for which the Kd (in general, the concentration at which binding is half-saturated) was ≤ 1 nM.

B2: PDC_EphA2-00019437 (peptide)
peptide: {CH2CO}-[dPhe(3-CONH2)][NMe3Pal]N[Gly(cBu)][Hgn][NMe3Pal][Trp(1-Me,7-Cl)][Qglucamine][Trp(1-Me)]T[Hgn]C-NH2
modifications: thioether N-12
SMILES: C[C@@H](O)[C@@H]1NC(=O)[C@H](Cc2cn(C)c3ccccc23)NC(=O)[C@H](CCC(=O)NC[C@H](O)[C@@H](O)[C@H](O)[C@H](O)CO)NC(=O)[C@H](Cc2cn(C)c3c(Cl)cccc23)NC(=O)[C@H](Cc2cccnc2)N(C)C(=O)[C@H](CCCC(N)=O)NC(=O)[C@H](C2CCC2)NC(=O)[C@H](CC(N)=O)NC(=O)[C@H](Cc2cccnc2)N(C)C(=O)[C@@H](Cc2cccc(C(N)=O)c2)NC(=O)CSC[C@@H](C(N)=O)NC(=O)[C@H](CCCC(N)=O)NC1=O
Regarding B2, the Kd was ≤ 1 nM.
